Data on one molecule can be found in patent US20260027190A1, “OVARIAN TUMOR DEUBIQUITINASE OXIDATION AND USES THEREOF” (The University of Vermont and State Agricultural College, priority 2022, published 2026).

The test relates to OTUB1 and UBCH5A. Nature of the test: Interaction between OTUB1 and UBCH5A. Format: cell-based. As to conditions: FIG. 14D. The source says:
OTUB1 was previously shown to interfere with ubiquitination and subsequent proteasomal degradation of SLC7A11. Overexpression of OTUB1 decreased ubiquitinated SLC7A11 (FIG. 17). […] The OTUB1-mediated attenuation of ubiquitination can occur through multiple mechanisms. OTUB1 can act as a canonical deubiquitinase that cleaves K48 chains. Alternatively, OTUB1 also can inhibit the function of E2 conjugating enzymes, including UBCH5 and OTUB1 has been found in a complex with E2 enzymes. Additionally, binding of E2 enzymes to OTUB1 can also promote OTUB1 deubiquitinase activity dependent on the ratio of ubiquitin-charged E2 to uncharged E2 enzyme and levels of free ubiquitin. OTUB1 D88 binds E2 enzymes and suppresses Ub-conjugating activity. Stabilization of SLC7A11 by OTUB1 has been speculated to involve directly binding between OTUB1 and SLC7A11 as well as the inhibition of E2 enzymes. […] These collective observations, along with observed increases in GSH following expression of OTUB1-C91S (FIG. 6C) support a non-canonical role of OTUB1 in augmenting GSH. […] To address this possible scenario, the present disclosure determined whether OTUB1-S-glutathionylation affected the interaction between OTUB1 and UBCH5A which requires the N-terminal region containing C23. […]

B1: GLRX: recombinant wild-type glutaredoxin protein, deglutathionylating enzyme, administered directly to cells (protein, UniProt P35754 2-106, looked up)
Glutaredoxin-1: AQEFVNCKIQPGKVVVFIKPTCPYCRRAQEILSQLPIKQGLLEFVDITATNHTNEIQDYLQQLTGARTVPRVFIGKDCIGGCSDLVSLQQSGELLTRLKQIGALQ
As to B1, the “interaction between OTUB1 and UBCH5A” value is reported as “decreases”.
